This passage reports Kd results from publication PMC8632080.

What all share (assay): ELISA; dose-response: host component coated as in the single-dose assay; increasing concentrations of recombinant protein (0–6 µM LipL21, 0–1.5 µM LipL41) in PBS-BSA, 2 h 37°C; KD from non-linear regression, one site-specific binding (GraphPad Prism 7)
(In an ELISA, binding on a coated surface is turned into a signal by an enzyme label.)

Test [1] has as its target E-cadherin (human recombinant) (human) (UniProt P12830).
Test [2] concerns the target laminin (human placenta) (human).
Test [3] addresses plasminogen (human plasma) (human).
The target of test [4] is vitronectin (human plasma) (human).
A further test deals with collagen IV.
For test [5], the target named is elastin (human aorta) (human) (UniProt P15502).
In test [6] the target is fibrinogen (human plasma) (human) (UniProt P02671).
In test [7] the target is plasma fibronectin (human plasma) (human).
Test [8] deals with collagen type I (rat tail) (rat) (UniProt P02454).

One may read the Kd as the equilibrium constant for the complex coming apart.

Sequence of UniProt P15502 (P15502 27-786): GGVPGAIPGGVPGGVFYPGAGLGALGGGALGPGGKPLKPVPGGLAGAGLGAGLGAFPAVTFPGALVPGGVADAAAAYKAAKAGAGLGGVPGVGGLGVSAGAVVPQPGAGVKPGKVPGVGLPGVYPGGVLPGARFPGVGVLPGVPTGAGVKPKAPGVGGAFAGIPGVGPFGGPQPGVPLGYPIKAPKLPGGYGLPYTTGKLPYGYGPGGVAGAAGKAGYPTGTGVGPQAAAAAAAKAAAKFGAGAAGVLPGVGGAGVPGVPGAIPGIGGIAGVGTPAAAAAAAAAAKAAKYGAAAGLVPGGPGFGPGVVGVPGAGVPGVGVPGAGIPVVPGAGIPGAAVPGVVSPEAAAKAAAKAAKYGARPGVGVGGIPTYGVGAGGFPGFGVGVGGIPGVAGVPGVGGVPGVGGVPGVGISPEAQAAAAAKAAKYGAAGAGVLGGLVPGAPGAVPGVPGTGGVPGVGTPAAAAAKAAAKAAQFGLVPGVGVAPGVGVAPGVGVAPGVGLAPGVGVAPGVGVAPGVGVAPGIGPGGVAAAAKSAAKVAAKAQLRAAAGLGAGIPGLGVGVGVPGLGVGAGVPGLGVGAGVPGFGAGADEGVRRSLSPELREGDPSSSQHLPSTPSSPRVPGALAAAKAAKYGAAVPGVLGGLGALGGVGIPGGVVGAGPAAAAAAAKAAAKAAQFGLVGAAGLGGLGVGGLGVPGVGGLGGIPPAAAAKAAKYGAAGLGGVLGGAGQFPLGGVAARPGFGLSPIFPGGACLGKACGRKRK
Sequence of UniProt P02671 (P02671 36-866, chain 1 of 3): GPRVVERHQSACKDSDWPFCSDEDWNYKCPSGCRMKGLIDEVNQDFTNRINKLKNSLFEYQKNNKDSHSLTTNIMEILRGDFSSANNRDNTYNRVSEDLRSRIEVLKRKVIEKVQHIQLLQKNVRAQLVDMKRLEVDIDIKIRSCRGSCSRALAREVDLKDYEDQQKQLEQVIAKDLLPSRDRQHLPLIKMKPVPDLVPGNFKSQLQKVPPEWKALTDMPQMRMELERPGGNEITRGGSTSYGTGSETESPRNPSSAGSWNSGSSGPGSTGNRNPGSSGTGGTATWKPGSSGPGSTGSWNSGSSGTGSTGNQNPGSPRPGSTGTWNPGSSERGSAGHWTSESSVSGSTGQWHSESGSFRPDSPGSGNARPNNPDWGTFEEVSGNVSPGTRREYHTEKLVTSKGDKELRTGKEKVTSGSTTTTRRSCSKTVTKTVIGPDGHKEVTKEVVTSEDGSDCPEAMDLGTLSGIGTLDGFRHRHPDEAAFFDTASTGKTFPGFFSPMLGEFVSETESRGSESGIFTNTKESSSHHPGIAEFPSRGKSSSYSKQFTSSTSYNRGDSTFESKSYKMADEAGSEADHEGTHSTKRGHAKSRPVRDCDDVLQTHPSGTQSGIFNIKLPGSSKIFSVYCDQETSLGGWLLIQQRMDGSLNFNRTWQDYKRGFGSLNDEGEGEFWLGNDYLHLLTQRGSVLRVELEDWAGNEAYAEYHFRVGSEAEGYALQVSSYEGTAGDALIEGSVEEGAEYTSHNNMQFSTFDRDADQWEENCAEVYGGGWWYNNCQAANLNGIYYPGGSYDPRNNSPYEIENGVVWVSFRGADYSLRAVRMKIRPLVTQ
Sequence of UniProt P02671 (P02675 45-491, chain 2 of 3, further chain): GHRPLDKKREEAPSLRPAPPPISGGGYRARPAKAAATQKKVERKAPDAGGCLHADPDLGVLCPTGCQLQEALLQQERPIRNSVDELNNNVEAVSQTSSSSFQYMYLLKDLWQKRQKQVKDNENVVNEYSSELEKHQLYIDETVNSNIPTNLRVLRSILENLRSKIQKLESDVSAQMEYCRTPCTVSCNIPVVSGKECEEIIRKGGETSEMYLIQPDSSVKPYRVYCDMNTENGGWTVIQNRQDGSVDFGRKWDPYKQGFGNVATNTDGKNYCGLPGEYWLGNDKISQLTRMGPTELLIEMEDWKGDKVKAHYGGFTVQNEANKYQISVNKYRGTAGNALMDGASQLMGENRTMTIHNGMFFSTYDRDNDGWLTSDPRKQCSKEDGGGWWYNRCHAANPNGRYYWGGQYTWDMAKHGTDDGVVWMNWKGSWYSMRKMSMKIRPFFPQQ
Sequence of UniProt P02671 (P02679 27-453, chain 3 of 3, further chain): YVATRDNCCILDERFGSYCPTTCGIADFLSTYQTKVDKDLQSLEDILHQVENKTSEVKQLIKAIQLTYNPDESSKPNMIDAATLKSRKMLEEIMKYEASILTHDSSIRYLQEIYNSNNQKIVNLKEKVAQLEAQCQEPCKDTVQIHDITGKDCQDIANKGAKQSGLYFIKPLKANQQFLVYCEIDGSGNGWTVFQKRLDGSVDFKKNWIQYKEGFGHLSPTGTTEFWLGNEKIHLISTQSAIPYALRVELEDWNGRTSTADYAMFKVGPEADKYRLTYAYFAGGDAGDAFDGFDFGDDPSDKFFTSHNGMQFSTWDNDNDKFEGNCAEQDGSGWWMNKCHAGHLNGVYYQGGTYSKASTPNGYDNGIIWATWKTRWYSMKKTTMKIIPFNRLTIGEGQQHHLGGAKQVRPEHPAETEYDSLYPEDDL
Sequence of UniProt P02454 (P02454 152-1207, chain 1 of 2): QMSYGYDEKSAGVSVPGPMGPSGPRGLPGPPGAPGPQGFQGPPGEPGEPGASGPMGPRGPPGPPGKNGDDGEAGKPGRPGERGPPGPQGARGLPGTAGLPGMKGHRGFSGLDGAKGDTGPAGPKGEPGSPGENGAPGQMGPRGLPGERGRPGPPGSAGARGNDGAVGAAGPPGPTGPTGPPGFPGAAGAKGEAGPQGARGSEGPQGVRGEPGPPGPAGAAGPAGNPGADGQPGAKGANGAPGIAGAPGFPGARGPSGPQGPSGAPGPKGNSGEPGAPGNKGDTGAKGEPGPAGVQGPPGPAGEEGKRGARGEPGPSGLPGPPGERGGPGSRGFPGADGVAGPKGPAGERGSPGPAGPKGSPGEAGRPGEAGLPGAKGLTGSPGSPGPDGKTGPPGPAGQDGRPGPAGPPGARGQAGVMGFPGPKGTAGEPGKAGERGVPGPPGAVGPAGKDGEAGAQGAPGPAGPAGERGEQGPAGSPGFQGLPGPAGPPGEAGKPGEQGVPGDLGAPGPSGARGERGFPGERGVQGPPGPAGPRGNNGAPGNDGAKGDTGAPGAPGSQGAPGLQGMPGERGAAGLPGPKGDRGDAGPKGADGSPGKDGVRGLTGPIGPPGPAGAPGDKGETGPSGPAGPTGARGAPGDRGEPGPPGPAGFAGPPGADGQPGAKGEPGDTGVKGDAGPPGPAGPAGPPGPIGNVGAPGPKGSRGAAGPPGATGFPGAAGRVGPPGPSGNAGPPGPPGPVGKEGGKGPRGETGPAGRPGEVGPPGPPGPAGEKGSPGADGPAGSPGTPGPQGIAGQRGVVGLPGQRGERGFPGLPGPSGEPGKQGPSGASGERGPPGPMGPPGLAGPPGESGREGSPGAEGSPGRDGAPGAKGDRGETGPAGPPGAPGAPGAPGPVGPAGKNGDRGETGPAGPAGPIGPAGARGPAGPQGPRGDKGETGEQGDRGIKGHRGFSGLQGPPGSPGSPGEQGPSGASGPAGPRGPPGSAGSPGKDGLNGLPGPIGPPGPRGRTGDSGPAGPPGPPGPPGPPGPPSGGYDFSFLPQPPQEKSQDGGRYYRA
Sequence of UniProt P02454 (P02466 86-1125, chain 2 of 2, further chain): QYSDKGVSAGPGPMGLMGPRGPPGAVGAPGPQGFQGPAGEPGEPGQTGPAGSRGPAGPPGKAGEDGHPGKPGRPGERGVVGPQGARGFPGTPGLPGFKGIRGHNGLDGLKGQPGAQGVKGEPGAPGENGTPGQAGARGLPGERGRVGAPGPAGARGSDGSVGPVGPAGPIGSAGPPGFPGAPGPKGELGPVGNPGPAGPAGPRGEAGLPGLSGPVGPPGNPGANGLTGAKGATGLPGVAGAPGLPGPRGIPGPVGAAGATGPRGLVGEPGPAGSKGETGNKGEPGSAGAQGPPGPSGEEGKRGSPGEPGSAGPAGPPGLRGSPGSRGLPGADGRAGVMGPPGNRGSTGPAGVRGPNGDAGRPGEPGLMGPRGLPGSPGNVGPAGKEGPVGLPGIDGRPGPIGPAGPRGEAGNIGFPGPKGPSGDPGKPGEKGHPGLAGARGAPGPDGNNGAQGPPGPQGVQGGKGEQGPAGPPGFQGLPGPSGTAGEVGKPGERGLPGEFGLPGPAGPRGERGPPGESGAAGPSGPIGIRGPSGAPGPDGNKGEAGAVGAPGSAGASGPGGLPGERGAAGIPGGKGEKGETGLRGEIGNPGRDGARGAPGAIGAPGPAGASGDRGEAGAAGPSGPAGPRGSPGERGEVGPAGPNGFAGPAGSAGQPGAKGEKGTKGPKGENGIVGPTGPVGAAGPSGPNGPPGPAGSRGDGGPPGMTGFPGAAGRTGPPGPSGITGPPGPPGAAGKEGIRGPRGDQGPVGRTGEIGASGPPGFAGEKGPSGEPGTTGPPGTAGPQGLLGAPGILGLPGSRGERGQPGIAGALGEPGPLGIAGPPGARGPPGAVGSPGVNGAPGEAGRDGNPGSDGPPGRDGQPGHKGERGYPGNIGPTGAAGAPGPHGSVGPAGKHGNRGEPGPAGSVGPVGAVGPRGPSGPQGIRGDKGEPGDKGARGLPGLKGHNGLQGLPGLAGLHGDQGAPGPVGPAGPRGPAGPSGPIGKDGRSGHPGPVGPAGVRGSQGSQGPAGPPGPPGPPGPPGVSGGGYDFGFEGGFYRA

For “recombinant LipL21 (LIC10011) (natural protein)”, the equilibrium dissociation constant (Kd) in test [1] was 147 nM; in [2], 287 nM; in test [3], 13.8 nM; in test [4], 424 nM; in the test with collagen IV, 53.9 nM; in test [5], 171 nM. Moreover, the Kd in [6] is 1120 nM; in test [7], 2540 nM; in test [8], 6140 nM.

Regarding “recombinant LipL41 (LIC12966) (natural protein)”, the dissociation constant Kd in test [1] was 1380 nM; in test [2], 312 nM; in the test with collagen IV, 537 nM; in [5] it was 2720 nM.
